Columns and labels:
[1] = target: T1, Drp1 isoform 2, endogenous in HeLa cells (Homo sapiens (HeLa), UniProt O00429-3, strain); assay: affinity purification with mass spectrometry; D7 and D63 nanotraps against GFP-Trap, soluble protein fractions of HEK293, HeLa and U2OS cells, three replicates; label-free quantification; Drp1 captured by the immobilised Nb; settings: one partner purified
T1 construct: also called isoform 2 of Drp1; source: endogenous, HeLa soluble protein fraction

[2] = target: T2, GFP-labelled Drp1 deletion construct GTPase-MD-VD (Homo sapiens, UniProt O00429); assay: pull-down; domain mapping: D7 or D63 nanotrap (Nb on NHS-sepharose) incubated overnight at 4°C with soluble protein fractions of HEK293 cells transiently expressing GFP-labelled Drp1 constructs; immunoblot with anti-GFP; settings: one partner purified
T2 construct: Drp1 (DNM1L), human; source: HEK293, transiently transfected, soluble protein fraction

[3] = target: T3, GFP-labelled Drp1 deletion construct GTPase-MD (Homo sapiens, UniProt O00429); assay: as above; settings: one partner purified
T3 construct: Drp1 (DNM1L), human; source: HEK293, transiently transfected, soluble protein fraction

[4] = target: T4, GFP-labelled Drp1 deletion construct GTPase (Homo sapiens, UniProt O00429); assay: as above; settings: one partner purified
T4 construct: Drp1 (DNM1L), human; also called N-terminal GTPase domain; source: HEK293, transiently transfected, soluble protein fraction

[5] = target: recombinant human dynamin-related protein 1 (Drp1), isoform 1 (Homo sapiens, isoform 1, UniProt O00429)
Chain of recombinant human dynamin-related protein 1 (Drp1), isoform 1 (O00429 whole entry, canonical isoform): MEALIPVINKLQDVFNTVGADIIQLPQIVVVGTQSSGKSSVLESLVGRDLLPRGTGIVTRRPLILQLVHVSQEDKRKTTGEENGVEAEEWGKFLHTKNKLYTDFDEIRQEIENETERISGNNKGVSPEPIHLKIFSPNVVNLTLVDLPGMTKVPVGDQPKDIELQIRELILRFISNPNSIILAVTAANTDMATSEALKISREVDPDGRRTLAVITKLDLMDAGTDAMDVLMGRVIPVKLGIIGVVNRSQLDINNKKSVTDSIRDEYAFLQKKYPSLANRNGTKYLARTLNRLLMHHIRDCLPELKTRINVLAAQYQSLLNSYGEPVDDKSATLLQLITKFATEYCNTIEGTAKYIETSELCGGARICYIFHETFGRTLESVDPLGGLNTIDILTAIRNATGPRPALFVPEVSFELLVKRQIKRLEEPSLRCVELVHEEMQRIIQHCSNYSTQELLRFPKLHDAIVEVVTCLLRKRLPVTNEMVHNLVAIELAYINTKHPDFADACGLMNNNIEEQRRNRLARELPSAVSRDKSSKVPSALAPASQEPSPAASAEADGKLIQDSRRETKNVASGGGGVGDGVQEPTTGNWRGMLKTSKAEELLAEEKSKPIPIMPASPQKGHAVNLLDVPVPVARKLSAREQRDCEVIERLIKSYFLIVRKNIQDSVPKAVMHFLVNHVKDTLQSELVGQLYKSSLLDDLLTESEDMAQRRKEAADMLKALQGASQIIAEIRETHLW

| Binder | binding result [5] | other results |
| --- | --- | --- |
| Drp1-specific nanobody D7 (VHH, Selected by phage display from an immunised alpaca; also called D7 Nb; D7 nanotrap (immobilised on NHS-sepharose); source: E. coli periplasmic extract for the protein ELISA) VHH: QVQLVESGGGLVQPGGSLRLSCVASGFDFSTYSMTWHRQVLGKERELVASITPGGSRTNVADSVKGRFTISRDNAKNMLYLQMDRLKPEDTGMYYCAQGGYYAEPDYWGKGTRVTVSS |  | binding result [1]: binds; binding result [2]: binds; binding result [3]: binds; binding result [4]: binds |
| D219 (VHH) QVQLVESGGGMVQSGGSLSLSCAASGFAFSLYEMSWIRQAQGRGPEWVASINPGSSRTYYTDSVKGRFTISRDNDKNILYLKMNSLKPEDTALYYCARGRTLGIGISSDKGSQVTVSS | binds |  |
| D49 (VHH) VHH: EVQLVESGGGWVQPGGSLRLSCSASGFTFRDYVMTWVRQTPGRGLEWVSAIDGSGSKINYLDSVKGRFTISRDNTQAMLYLQMNSLRPDDTAVYYCARKGRGGLGEGTYWGKGTQVTVSS | binds |  |
| Drp1-specific nanobody D63 (VHH, Selected by phage display from an immunised alpaca; also called D63 Nb; D63 nanotrap (immobilised on NHS-sepharose); source: E. coli periplasmic extract for the protein ELISA) VHH: QVQLVESGGDLVQPGGSLKLSCAVSGVSDSLSSFYLMAWHRQAPGKQREMIADIVSGKATYADSVKGRFTISRDNAENTAYLQMNSLKPEDTAVYYCNVLIQNRSTFQSYWGQGTQVTVSS |  | binding result [1]: binds |
| D246 (VHH) VHH: EVQLVESGGGLAQPGGSLRLSCAASGPTDNIYTMGWYRQPPGQSRQFVASVVWSTGVKAYAKFVGGRFRITKDSAKRTVDLQMDSLQPEDTAIYFCNLNDRVTPMSERDYWGQGTPVTVSS | binds |  |
| D187 (VHH) VHH: HVQLVESGGGLVQAGESLKLSCVASGIPFSSRAMGWYRQTPGKDRELVARISVRGVTFYADSVTGRFAISRDNDRSTLYLQMNSLKSEDTAIYFCAAGDNTQTVLTRPAHWGQGTQVTVSS | binds |  |
| D193 (VHH) VHH: EVQLVDSGGGLVQSGGSLTLACAASVSIDEFPAMTWYRQATGKQRELVGVITKGGATKLADSAKGRFTISRDNAKNMVYLQMTSLKPDDTAVYYCSVPNKVMGWGPDDWWGQGSQVTVSS | binds |  |
| D258 (VHH) VHH: EVQLQESGGESVQPGGSLRLSCVVSGTTFSTVAMGWYREVPGKKRELVARISSRGVTFYSDSVEGRFTISKDNDKSTLYLQMNSLETEDTAMYFCAAAGNSEVVLFRPKYWGQGTPVTVSS | binds |  |
